Experimental data: patent US20260193372A1 (Hoffmann-La Roche, published 2026)

Tests used:
[1] = biological target: T1, stabilized human C3bBb complex comprising the Bb subunit of the FB protein of SEQ ID NO: 3 (triple mutant), … (human, UniProt P01024 23-667; P00751 260-764; P01024 749-1663, limits assumed, biotinylated with EZ-Link HPDP-Biotin (Cys)); test: ELISA, biotinylated C3bBb on streptavidin plate, Fab supernatant, anti kappa/anti T7 HRP
T1 construct: also called C3bBb (D279G/350N/M458I); C3bBb triple mutant-HPDP
Method: (§1) Method: 20 μl of a mixture of 500 ng/ml stabilized human C3bBb-Cys-HPDP-Biotin (inhouse preparation), 1:3000 mouse anti human kappa HRP (Southern Biotech 9230-05) and 1:2000 Mouse IgG anti T7 Tag HRP (Novagen 69048-3) was added to a Microcoat Streptavidine coated 384 well Microplate (Microcoat 11974998001). 25 μl sample was added to the plate and incubated at room temperature for 1 hour. After incubation plates were washed with 90 μl/well washing buffer using a Biotek EL406 Washer and 30 μl TMB (3,3′,5,5′-3,3,5,5-Tetramethylbenzidine, Roche 11835033001) was added. After a 5 Minute incubation at room temperature the optical density (OD) was measured at 370 nm using an En Vision Multimode Plate Reader (Perkin Elmer).

[2] = biological target: T2, stabilized human C3bBb complex comprising the Bb subunit of the FB protein of SEQ ID NO: 2 (single mutant), … (human, UniProt P01024 23-667; P00751 260-764; P01024 749-1663, limits assumed, biotinylated with EZ-Link HPDP-Biotin (Cys)); test: as above
T2 construct: also called C3bBb (D279G)
Method: as §1

[3] = biological target: mixture of 5 nM human C3, 5 nM human C3a and 2.5 nM human C3b coated on the plate; test: counterscreening ELISA, plate coated with a mixture of human C3, C3a and C3b, Fab supernatant
[4] = biological target: mixture of 10 nM human Factor B, 5 nM human Ba and 10 nM human Bb coated on the plate; test: counterscreening ELISA, plate coated with a mixture of human Factor B, Ba and Bb, Fab supernatant
[5] = biological target: T3, plasma purified C3b (Complement Technology), biotinylated at cysteine 1010 with Maleimide-PEG3-biotin (human, UniProt P01024 23-667; P01024 749-1663, limits assumed, cysteine 1010 biotinylated (Maleimide-PEG3-biotin)); test: BLI, biotinylated C3b on streptavidin sensor, FB with factor D, Ni2+ buffer, dissociation of C3bBb, single exponential fit
T3 construct: Loaded on streptavidin BLI sensors; also called Complement C3 beta chain (C3b); C3 fragment
Description: Correction of the BLI trace was identical to the experiment in presence of magnesium. Different from the Mg2+ containing C3bBb complexes, only one species was detected during dissociation and a single exponential decay (A*exp(((−1)*B)*x)) was used for analysis.

[6] = biological target: T3, plasma purified C3b (Complement …); test: BLI, dissociation of C3bBb, Ni2+ buffer, against wild type C3bBb formed in presence of magnesium ions
[7] = biological target: T3, plasma purified C3b (Complement …); test: BLI, biotinylated C3b on streptavidin sensor, FB with factor D, Mg2+ buffer, dissociation of C3bBb, double exponential fit
Method: To analyze stability of the C3bBb complexes having the different Bb subunits, C3b cysteine 1010 was biotinylated by incubating plasma purified C3b (Complement Technology) overnight at 4° C. in presence of 5 molar excess Maleimide-PEG3-biotin (Thermo Fisher Scientific) followed by purification on a Zeba spin column 40K (Thermo Fisher Scientific). This material was used to load streptavidin functionalized BLI sensors (SA sensors; Fortebio) in an Octet RED 384 device (Fortebio) at high density (5 nm BLI signal). C3bBb was assembled by exposing the C3b loaded sensors to different recombinant factor B variants (i.e. wild type SEQ ID NO: 1; D279G variant of SEQ ID NO: 2; D279G K350N M458I triple variant of SEQ ID NO: 3) in presence of 54 nM plasma purified factor D (Complement Technology) in HBS-T (Mg) buffer (150 mM NaCl, 10 mM HEPES, 1 mM MgCl2, 0.005% Tween20. pH 7.4) at 22° C. […]
After subtraction of the signal recorded from parallel reference sensors omitting the C3b loading step and subtraction of a control sensor omitting factor B and factor D, data of the dissociation phase was fitted to the double exponential ((A*exp(((−1)*B)*x)))+(C*exp(((−1)*D)*x)) using XLfit (IDBS software), allowing for heterogeneity in the assembled convertase population. […]

T3 sequence (P01024 23-667 limits assumed, chain 1 of 2): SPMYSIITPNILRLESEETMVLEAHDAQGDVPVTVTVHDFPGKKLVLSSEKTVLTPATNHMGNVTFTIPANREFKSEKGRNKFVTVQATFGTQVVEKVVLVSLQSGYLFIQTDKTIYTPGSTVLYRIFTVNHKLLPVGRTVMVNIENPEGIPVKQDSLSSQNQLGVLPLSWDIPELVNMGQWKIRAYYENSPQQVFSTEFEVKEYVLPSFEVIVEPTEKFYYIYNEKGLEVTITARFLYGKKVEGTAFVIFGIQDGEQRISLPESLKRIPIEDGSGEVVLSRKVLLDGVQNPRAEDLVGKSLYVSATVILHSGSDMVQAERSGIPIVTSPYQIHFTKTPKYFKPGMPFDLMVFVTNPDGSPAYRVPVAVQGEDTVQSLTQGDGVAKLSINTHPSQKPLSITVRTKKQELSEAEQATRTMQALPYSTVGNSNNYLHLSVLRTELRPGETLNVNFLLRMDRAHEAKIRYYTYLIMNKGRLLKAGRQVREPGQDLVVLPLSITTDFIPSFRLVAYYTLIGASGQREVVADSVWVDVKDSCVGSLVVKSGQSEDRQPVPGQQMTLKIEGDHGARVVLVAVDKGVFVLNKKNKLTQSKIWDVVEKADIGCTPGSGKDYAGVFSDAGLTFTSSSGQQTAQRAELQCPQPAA
T3 sequence (P01024 749-1663 limits assumed, chain 2 of 2): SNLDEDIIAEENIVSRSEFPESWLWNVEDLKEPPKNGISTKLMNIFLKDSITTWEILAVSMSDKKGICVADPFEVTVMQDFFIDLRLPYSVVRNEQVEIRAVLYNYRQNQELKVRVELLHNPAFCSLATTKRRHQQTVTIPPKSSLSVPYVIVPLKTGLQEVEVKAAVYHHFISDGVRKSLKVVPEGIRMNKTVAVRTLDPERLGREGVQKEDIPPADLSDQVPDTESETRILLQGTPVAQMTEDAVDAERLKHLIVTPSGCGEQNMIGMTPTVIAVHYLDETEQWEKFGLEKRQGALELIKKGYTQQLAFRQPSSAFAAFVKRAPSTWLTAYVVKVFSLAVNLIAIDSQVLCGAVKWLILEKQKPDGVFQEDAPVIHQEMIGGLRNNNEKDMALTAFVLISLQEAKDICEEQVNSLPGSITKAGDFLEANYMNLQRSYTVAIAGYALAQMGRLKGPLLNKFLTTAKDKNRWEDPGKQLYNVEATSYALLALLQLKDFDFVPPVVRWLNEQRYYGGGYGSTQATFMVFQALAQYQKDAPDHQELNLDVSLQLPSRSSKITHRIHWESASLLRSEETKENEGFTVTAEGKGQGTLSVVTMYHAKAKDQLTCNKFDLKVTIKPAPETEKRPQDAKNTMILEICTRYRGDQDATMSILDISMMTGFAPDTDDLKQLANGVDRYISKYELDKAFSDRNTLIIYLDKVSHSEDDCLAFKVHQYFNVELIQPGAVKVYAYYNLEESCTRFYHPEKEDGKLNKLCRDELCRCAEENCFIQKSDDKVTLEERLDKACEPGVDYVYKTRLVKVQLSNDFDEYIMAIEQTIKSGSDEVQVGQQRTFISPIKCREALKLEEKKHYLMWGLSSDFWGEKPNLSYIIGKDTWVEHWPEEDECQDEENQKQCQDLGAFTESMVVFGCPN
T1 sequence (P01024 23-667 limits assumed, stated change not applied, chain 1 of 3, one chain of several): as the sequence (P01024 23-667 limits assumed, chain 1 of 2) above
T1 sequence (P01024 749-1663 limits assumed, stated change not applied, chain 3 of 3, one chain of several): as the sequence (P01024 749-1663 limits assumed, chain 2 of 2) above
T2 sequence (P01024 23-667 limits assumed, stated change not applied, chain 1 of 3): as the sequence (P01024 23-667 limits assumed, chain 1 of 2) above
T2 sequence (P00751 other isoform, or with tags, fused parts or gaps mutant limits assumed, chain 2 of 3): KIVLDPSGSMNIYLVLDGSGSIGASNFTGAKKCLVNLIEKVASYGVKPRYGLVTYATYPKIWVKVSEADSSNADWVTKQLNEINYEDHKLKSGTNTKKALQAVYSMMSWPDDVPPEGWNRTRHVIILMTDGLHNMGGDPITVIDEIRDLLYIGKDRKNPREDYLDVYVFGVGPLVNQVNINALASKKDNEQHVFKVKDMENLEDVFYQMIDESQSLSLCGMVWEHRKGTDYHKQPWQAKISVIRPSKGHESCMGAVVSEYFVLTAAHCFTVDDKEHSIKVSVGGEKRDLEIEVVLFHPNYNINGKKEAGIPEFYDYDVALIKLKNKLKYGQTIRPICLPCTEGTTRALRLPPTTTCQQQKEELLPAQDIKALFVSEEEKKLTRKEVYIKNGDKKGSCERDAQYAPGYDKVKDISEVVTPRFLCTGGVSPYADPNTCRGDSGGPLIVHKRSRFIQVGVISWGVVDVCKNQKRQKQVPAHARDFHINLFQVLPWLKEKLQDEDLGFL
T2 sequence (P01024 749-1663 limits assumed, stated change not applied, chain 3 of 3): as the sequence (P01024 749-1663 limits assumed, chain 2 of 2) above

OD (370 nm) [1] [OD]	OD (370 nm) [2] [OD]	OD (370 nm) [3] [OD]	OD (370 nm) [4] [OD]	prevalence of main species [5] [%]	t ½ [5] [h]	fold increase in C3bBb half-life [6] [fold]	prevalence of main species [7] [%]	t ½ [7] [h]	Binder
2.9	0.023	-0.005	-0.01	–	–	–	–	–	C3bBb.P045.072 (Fab, V domains shown, Tested as soluble Fab in E. coli supernatant with a T7 tag at the C-terminus of the Fab CH1 domain; detected with anti human kappa) VH: KLQLVESGGGLVKPGGSLRLSCAASGRRFGVQDMSWVRQAPGKGLEWVGSISPKGDHKYLNTKFIGRFTISRDNSKNTLYLQMNSLRAEDTAVYYCARDWGYFDQWGQGTLVTVSS VL: AIQMTQSPSSLSASVGDRVTITCHGSYWLSSEVAWYQQKPGKAPKLLIYDGNGIIGNVPSRFSGSGSHEDYTLTISSLQPEDFATYYCQQYRYHPYTFGHGTKVEIK
1.9	0.004	0.001	0.006	–	–	–	–	–	C3bBb.P048.061 (Fab, V domains shown, Tested as soluble Fab in E. coli supernatant with a T7 tag at the C-terminus of the Fab CH1 domain; detected with anti human kappa) VH: GQLVESGGGLVKPGGSLRLSCKASGFYWGPGAMSWVRQAPGKGLEWVGSISPKGGSTDINPKIGGRFTISRDNNQDTLYLQMNSLRAEDTAVYYCARDIGFFDTWGQGTLVTVSS VL: AIQMTQSPSSLSASVGDRVTITCQGSWLISNYLAWYQQKPGKAPKLLIFDAKYRAPEVPSRFSGSGSGTDFTLTISSLQPEDFATYYCQQYGGRLLTFGQGTKVEIK
0.187	2.42	-0.006	0.002	–	–	–	–	–	C3bBb.P048.127 (Fab, V domains shown, Tested as soluble Fab in E. coli supernatant with a T7 tag at the C-terminus of the Fab CH1 domain; detected with anti human kappa) VH: GQLVESGGGLVKPGGSLRLSCKASGFYWGPGAMSWVRQAPGKGLEWVGSISPKGGSTEYNTKVYGRFTISRDNNQDTLYLQMNSLRAEDTAVYYCARDIGFFDTWGQGTLVTVSS VL: HQMTQSPSSLSASVGDRVTITCDGEWDISNYLAWYQQKPGKAPKLLIFDAKYRAPEVPSRFSGSGSGRDFTLTISSLQPEDFATYYCQQYNRMYFTFGQGTKVEIK
2.38	2.57	0.17	0.037	–	–	–	–	–	C3bBb.P048.241 (Fab, V domains shown, Tested as soluble Fab in E. coli supernatant with a T7 tag at the C-terminus of the Fab CH1 domain; detected with anti human kappa) VH: GQLVESGGGLVKPGGSLRLSCKASGFYWGPGAMSWVRQAPGKGLEWVGSISPKGGSAWYNNNFTGRFTISRDNNQDTLYLQMNSLRAEDTAVYYCARDIGFFDTWGQGTLVTVSS VL: INQMTQSPSSLSASVGDRVTITCQAKWVISNYLAWYQQKPGKAPKLLIFDAKYRAPEVPSRFSGSGSDGTFTLTISSLQPEDFATYYCQQYDWWPYTFGQGTKVEIK
-0.01	0.86	-0.014	0.004	–	–	–	–	–	C3bBb.P055.015 (Fab, V domains shown, Tested as soluble Fab in E. coli supernatant with a T7 tag at the C-terminus of the Fab CH1 domain; detected with anti human kappa) VH: GQLVESGGGLVKPGGSLRLSCKASGFYWGPGAMSWVRQAPGKGLEWVGSISPKGGSAEYASKVYGRFTISRDNNQDTLYLQMNSLRAEDTAVYYCARDIGFFDTWGQGTLVTVSS VL: DYQMTQSPSSLSASVGDRVTITCEAHSQISNYLAWYQQKPGKAPKLLIFDAKYRAPEVPSRFSGSGSGPDFTLTISSLQPEDFATYYCQQYNDFWLTFGQGTKVEIK
–	–	–	–	100	11.3	135	93	1.98	recombinant human FB with D279G, K350N and M458I with His Tag and Precission site (enzyme, Cleaved by factor D in the assay; the Bb subunit stays on C3b; also called FB (D279G, K350N and M458I); triple mutated Bb) KIVLDPSGSMNIYLVLDGSGSIGASNFTGAKKCLVNLIEKVASYGVKPRYGLVTYATYPKIWVKVSEADSSNADWVTKQLNEINYEDHKLNSGTNTKKALQAVYSMMSWPDDVPPEGWNRTRHVIILMTDGLHNMGGDPITVIDEIRDLLYIGKDRKNPREDYLDVYVFGVGPLVNQVNINALASKKDNEQHVFKVKDIENLEDVFYQMIDESQSLSLCGMVWEHRKGTDYHKQPWQAKISVIRPSKGHESCMGAVVSEYFVLTAAHCFTVDDKEHSIKVSVGGEKRDLEIEVVLFHPNYNINGKKEAGIPEFYDYDVALIKLKNKLKYGQTIRPICLPCTEGTTRALRLPPTTTCQQQKEELLPAQDIKALFVSEEEKKLTRKEVYIKNGDKKGSCERDAQYAPGYDKVKDISEVVTPRFLCTGGVSPYADPNTCRGDSGGPLIVHKRSRFIQVGVISWGVVDVCKNQKRQKQVPAHARDFHINLFQVLPWLKEKLQDEDLGFL
